Data: patent US20100196385A1 (AstraZeneca / MedImmune, published 2010)

Experiments:
full length human DLL4 [1] = target: T1, full length human DLL4 (human, UniProt Q9NR61 27-685); assay: FACS competition, unlabeled antibody vs competitor Alexa-647 4B4, HEK293 cells with human DLL4
T1 construct: whole, on cells; also called native DLL4 expressed in HEK293 cells
Procedure: (§1) The ability of the purified DLL4 antibodies to inhibit the binding of other DLL4 antibodies to human DLL4 was assessed using a FACS assay. Briefly, antibodies were directly labelled with Alexa-647 using a commercially available labelling kit (e.g. Molecular Probes catalog #A30009, A-20186) as per the manufacturer's instructions. To determine the level of cross-competition, unlabelled anti-DLL4 antibodies (final concentration: 10-0.01 μg/ml) diluted in PBS containing 2% FCS were added to DLL4-expressing HEK 293 cells (as described in example 6; 50000 cells/well diluted in PBS containing 2% FCS) and incubated for 1 h at 4° C. Subsequently, Alexa-647 labeled anti-DLL4 antibodies were added at a final concentration of 0.1 μg/ml and plates were incubated for a further 1 h at 4° C. prior to washing and reading on a FACSCalibur instrument. Data that summarizes the ability of unlabeled antibodies (10, 1, 0.1 μg/ml) to compete with labeled 21H3RK for binding to human DLL4 is included in FIG. 3. Additional data that summarizes the ability of unlabeled antibodies to compete with labeled 21H3RK and 4B4 for binding to human DLL4 is included in Table 22.

human Dll1 [2] = target: T2, human Dll1 (human, UniProt O00548 18-723); assay: Flow cytometry on HEK293F cells transiently expressing HuDll1; 21H3RK, goat anti-human IgG-FITC
T2 construct: whole, on cells
T2 sequence (looked up): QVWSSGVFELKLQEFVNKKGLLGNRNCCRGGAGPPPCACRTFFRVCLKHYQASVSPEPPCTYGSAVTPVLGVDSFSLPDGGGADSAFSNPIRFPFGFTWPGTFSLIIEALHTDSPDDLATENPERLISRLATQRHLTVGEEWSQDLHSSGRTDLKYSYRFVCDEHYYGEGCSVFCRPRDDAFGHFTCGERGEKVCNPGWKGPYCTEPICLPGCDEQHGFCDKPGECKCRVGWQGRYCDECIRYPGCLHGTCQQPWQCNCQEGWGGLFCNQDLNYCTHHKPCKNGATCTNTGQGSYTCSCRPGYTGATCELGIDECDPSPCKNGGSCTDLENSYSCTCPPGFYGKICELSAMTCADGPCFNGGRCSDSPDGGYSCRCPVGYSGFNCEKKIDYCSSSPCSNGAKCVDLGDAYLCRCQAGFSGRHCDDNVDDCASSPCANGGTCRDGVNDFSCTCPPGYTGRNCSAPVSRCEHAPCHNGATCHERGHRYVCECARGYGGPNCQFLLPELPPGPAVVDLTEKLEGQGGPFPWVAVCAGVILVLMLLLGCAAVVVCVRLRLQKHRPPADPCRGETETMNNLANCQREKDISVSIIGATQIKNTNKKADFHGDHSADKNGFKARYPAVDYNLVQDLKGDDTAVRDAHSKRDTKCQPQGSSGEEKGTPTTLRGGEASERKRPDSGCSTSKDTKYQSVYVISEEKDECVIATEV
Source text: This specificity is employed to deduce the binding epitope of Mab 21H3RK to human DLL4. Chimeric variants were engineered with portions of the extracellular domain of DLL4 replaced with the corresponding segments of DLL1. […] The resulting variants were cloned into a mammalian expression vector encoding a human cytomegalovirus major immediate early (hCMVie) enhancer, promoter and 5′-untranslated region for transient mammalian expression. The chimeric variants were transiently expressed in HEK293F cells as membrane-bound proteins for flow cytometric characterization with Mab 21H3RK. 48 h post-transfection, HEK293F transfectants were incubated with 1 μg/ml of Mab 21H3RK for 1 h on ice in PBS, washed, then incubated with goat anti-human IgG-FITC (Jackson ImmunoResearch Laboratories, PA) and analyzed with a LSRII flow cytometer (BD Biosciences, CA). The expression levels of all chimeric variants were is monitored by incubating with a mixture of both goat anti-mouse DLL4 (which also recognizes human DLL4) and goat anti-human DLL1 polyclonal antibodies (both from R&D Systems., MN), then detected with porcine anti-goat IgG-PE (Invitrogen, CA).

human Dll1 [3] = target: T2, human Dll1; assay: FACS, up to 300 µg/ml, HEK-293 cells stably overexpressing human Dll1
full length human DLL4 [4] = target: T1, full length human DLL4; assay: FACS competition, unlabeled antibody vs competitor Alexa-647 21H3RK, HEK293 cells with human DLL4
Procedure: as §1

human Jagged1 [5] = target: T3, human Jagged1 (human, UniProt P78504 34-1218); assay: FACS, up to 300 µg/ml, HEK-293 cells stably overexpressing human Jagged1
T3 construct: whole, on cells
T3 sequence (P78504 34-1218): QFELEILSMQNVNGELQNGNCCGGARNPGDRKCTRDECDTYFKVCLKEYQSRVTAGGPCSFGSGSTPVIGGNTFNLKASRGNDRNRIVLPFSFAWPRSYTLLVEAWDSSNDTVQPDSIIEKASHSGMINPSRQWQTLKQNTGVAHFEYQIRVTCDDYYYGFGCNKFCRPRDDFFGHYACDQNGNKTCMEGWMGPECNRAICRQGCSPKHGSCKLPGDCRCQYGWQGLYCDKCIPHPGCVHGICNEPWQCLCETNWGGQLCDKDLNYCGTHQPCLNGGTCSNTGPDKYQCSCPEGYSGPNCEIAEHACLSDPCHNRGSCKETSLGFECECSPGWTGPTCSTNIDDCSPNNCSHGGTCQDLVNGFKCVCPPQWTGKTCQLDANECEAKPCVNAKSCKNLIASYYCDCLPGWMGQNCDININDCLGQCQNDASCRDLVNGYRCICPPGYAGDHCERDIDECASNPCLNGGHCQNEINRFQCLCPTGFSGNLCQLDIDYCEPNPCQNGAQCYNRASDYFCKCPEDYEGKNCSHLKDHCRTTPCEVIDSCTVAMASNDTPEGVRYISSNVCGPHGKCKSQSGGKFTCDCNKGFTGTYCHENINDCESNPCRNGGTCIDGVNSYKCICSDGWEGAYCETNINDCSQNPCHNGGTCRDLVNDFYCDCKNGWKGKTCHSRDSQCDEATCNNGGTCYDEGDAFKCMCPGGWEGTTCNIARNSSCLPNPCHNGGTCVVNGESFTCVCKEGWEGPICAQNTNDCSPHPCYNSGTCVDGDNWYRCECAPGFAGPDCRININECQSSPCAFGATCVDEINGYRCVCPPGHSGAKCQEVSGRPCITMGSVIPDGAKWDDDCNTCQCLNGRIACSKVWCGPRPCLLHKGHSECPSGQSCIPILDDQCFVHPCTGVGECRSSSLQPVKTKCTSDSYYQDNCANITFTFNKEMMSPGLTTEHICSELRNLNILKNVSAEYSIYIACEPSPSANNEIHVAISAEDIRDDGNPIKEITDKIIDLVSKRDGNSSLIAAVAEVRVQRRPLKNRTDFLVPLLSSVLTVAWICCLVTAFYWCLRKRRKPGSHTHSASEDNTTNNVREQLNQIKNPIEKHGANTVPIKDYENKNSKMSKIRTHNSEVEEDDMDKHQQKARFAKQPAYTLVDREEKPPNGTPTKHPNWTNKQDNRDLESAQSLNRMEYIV

full length human DLL4 [6] = target: T1, full length human DLL4; assay: FACS competition vs human Notch1/Fc, HEK293 cells with human DLL4
Procedure: (§2) Further experiments were performed on selected antibodies using HEK293 cells that were stably transfected with either human, mouse or cynomolgus monkey DLL4 using retroviral constructs. In these experiments, anti-DLL4 antibodies (final concentration: 10-0.01 μg/ml) diluted in PBS containing 2% FCS were added to DLL4-expressing HEK 293 cells (50000 cells/well diluted in PBS containing 2% FCS) and incubated for 1 h at 4° C. Subsequently, Alexa-647 labeled human, rat or APC labeled mouse Notch1/Fc (e.g. R&D Systems, catalog #3647-TK-050, 1057-TK-050, 5267-TK-050, respectively) was added at a final concentration of 0.01-0.5 μg/ml and plates were incubated for a further 2 h at 4° C. prior to washing and reading on a FACSCalibur instrument.

full length mouse DLL4 = target: T4, full length mouse DLL4 (mouse, UniProt Q9JI71 27-686); assay: FACS competition vs mouse Notch1/Fc, HEK293 cells with mouse DLL4
T4 construct: whole, on cells
T4 sequence (Q9JI71 27-686): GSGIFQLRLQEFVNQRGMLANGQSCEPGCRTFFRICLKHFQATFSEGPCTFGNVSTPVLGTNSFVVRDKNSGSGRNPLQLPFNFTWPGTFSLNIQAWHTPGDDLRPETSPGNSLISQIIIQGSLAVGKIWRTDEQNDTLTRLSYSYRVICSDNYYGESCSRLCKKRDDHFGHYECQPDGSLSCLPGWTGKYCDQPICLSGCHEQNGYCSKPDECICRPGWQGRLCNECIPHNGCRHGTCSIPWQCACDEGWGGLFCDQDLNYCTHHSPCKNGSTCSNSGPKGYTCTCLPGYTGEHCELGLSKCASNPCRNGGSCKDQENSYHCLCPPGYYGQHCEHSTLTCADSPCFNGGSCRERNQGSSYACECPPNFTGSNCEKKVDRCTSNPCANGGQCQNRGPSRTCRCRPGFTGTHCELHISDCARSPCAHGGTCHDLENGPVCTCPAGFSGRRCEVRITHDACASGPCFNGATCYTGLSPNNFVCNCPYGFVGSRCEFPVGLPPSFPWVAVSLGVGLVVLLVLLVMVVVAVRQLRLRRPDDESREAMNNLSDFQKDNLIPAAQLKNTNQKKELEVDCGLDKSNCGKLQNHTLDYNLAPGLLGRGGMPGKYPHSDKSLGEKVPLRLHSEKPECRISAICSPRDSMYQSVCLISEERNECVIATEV
Procedure: as §2

[7] = target: T5, human soluble DLL4 (R&D systems catalog #1056-D4-050) (human, UniProt Q9NR61 27-524); assay: Biacore T100, antibody immobilised, soluble human DLL4 as analyte
T5 construct: Catalog number as printed; perhaps the same product as #1506-D4; also called antigen DLL4
T5 sequence (Q9NR61 27-524 limits assumed): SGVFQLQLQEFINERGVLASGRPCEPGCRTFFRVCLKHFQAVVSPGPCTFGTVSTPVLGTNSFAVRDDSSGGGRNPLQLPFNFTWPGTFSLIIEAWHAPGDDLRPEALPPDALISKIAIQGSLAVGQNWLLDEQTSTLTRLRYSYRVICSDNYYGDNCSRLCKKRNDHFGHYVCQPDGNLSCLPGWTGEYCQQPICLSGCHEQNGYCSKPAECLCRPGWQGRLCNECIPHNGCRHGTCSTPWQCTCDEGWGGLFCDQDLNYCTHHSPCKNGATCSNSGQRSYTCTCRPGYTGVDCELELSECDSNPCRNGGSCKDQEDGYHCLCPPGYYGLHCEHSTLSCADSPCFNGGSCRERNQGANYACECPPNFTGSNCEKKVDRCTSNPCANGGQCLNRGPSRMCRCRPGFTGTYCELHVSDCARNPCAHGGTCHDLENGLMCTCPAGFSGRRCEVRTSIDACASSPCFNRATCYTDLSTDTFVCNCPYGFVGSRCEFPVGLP
Procedure: For Biacore analysis, each purified anti-DLL4 antibody was immobilized on a CM5 sensor chip within a T100 using standard amine coupling. Immobilization levels were kept below 200 RU. The concentration of DLL4 was determined by UV-VIS spectroscopy using a molar absorptivity at 280 nm of 110, 440 M⁻¹cm⁻¹, which was calculated from the sequence of the protein using a method developed by Pace et al. (G. R. Grimsley and C. N. Pace (2003) in Current Protocols in Protein Science (John Wiley & Sons, Inc.), 3.1.1-3.1.9). The antigen DLL4 (R&D systems; human catalog #1056-D4-050 or mouse, catalog #1389-D4-050) was diluted to a starting concentration of 32-64 nM and tested in a 3-fold dilution series in triplicate. The running buffer contained HBS-P with 0.1 mg/ml BSA and binding responses were collected at 23° C. Bound complexes were regenerated with a 15 s pulse of 10 mM of sodium hydroxide. The response data were globally fitted with a simple 1:1 interaction model and Table 20 summarizes the kₐ, kd and KD estimates obtained for the anti-DLL4 antibodies when binding to human soluble DLL4 was assessed.

full length human DLL4 [8] = target: T1, full length human DLL4; assay: FACS titration, HEK293 cells with human DLL4
Procedure: The binding affinities of the purified antibodies for DLL4 was estimated using is both FACS and BIAcore techniques. […] The cells were then washed and incubated with goat anti-human IgG-Fc-Cy5+5 μg/mL 7-Amino-Actinomycin (7AAD) for 30 minutes at 4° C.
In this equation, F=mean fluorescence, LT=total molecular mAb concentration, P′=proportionality constant that relates arbitrary fluorescence units to bound mAb, M=cellular concentration in molarity, n=number of receptors per cell, B=background signal, and KD=equilibrium dissociation constant. For each mAb titration curve an estimate for KD is obtained as P′, n, B, and KD are allowed to float freely in the nonlinear analysis. Table 20 summarizes the affinity estimates for the anti-DLL4 antibodies for human and cynomolgus monkey DLL4 derived using the methodology described above

human Jagged1 [9] = target: T3, human Jagged1; assay: FACS, 5 µg/ml, 293T cells with human Jagged1
Summary of the method: (§3)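 Cross-reactivity of anti-DLL4 antibodies is measured on cells seeded at 50000 per well in PBS/2% FCS. Antibody, diluted in the same buffer, is incubated for 1 h at 4 °C before flow cytometric analysis against mock-transfected controls.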

human Jagged1 [10] = target: T3, human Jagged1; assay: FACS, 5 µg/ml, 293T cells with human Jagged1 vs mock
Summary of the method: as §3

human Jagged1 [11] = target: T3, human Jagged1; assay: FACS, 0.2 µg/ml, 293T cells with human Jagged1 vs mock
human Jagged1 [12] = target: T3, human Jagged1; assay: FACS, 1 µg/ml, 293T cells with human Jagged1 vs mock

T1 sequence (Q9NR61 27-685): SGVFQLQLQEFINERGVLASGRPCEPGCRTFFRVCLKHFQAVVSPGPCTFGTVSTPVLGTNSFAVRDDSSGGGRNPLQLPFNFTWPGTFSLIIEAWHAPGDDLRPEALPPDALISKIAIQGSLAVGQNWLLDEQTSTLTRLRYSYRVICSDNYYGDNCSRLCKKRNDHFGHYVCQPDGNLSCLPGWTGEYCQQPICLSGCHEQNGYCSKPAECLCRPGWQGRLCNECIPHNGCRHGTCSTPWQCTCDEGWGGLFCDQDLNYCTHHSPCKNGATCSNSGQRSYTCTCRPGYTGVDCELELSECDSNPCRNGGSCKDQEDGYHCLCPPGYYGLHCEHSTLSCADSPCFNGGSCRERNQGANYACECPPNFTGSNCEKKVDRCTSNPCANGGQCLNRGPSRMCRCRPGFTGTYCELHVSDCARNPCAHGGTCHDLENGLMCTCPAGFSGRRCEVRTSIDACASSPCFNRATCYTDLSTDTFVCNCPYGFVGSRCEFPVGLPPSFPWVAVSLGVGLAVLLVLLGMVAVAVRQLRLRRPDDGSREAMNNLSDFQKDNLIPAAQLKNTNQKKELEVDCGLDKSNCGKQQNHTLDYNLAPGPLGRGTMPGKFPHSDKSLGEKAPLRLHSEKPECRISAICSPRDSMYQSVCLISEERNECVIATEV

B1: 21H3RK (antibody, V domains shown)
VH: QVQLVQSGAEVKKPGASVKVSCKASGYTFTNYGITWVRQAPGQGPEWMGWISAYNGNTNYAQKLQDRVTVTTDTSTSTAYMELRSLRSDDTAVYYCARDRVPRIPVTTEAFDIWGQGTMVTVSS
VL: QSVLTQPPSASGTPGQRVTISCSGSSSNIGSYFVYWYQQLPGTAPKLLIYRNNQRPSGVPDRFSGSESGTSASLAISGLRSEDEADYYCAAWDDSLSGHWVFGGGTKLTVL
notes: also called Mab 21H3RK; Monoclonal 21H3RK
In the case of B1, the IC50 (full length human DLL4 [1]) is reported as 0.223 µg/mL, the binding result (human Dll1 [2]) is reported as “no binding (tested: 1 ug/ml (single concentration))” and the fold over background (human Dll1 [3]) is reported as less than 2.5 fold. For the same binder, the IC50 (full length human DLL4 [4]) was 0.214 µg/mL and the fold over background (human Jagged1 [5]) was less than 2.5 fold.

B2: 21H3RK IgG1 (antibody, V domains shown)
VH: B1 VH
VL: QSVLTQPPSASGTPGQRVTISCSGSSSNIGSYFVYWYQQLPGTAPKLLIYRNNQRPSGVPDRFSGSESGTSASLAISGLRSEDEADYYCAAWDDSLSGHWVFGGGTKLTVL
notes: IgG1; VL is 21H3 VLOP1 (R107K)
Binder B2 has an IC50 (full length human DLL4 [6]) of 580 pM, an IC50 (full length mouse DLL4) of 42000 pM and a Kd [7] of 493 pM. It also gave a koff [7] of 0.000166 s⁻¹, a kon [7] of 337000 M⁻¹ s⁻¹ and a Kd (full length human DLL4 [8]) of 155 pM.

B3: human Notch3/Fc chimera (Fc fusion, UniProt Q9UM47 40-467, looked up)
chain: APPCLDGSPCANGGRCTQLPSREAACLCPPGWVGERCQLEDPCHSGPCAGRGVCQSSVVAGTARFSCRCPRGFRGPDCSLPDPCLSSPCAHGARCSVGPDGRFLCSCPPGYQGRSCRSDVDECRVGEPCRHGGTCLNTPGSFRCQCPAGYTGPLCENPAVPCAPSPCRNGGTCRQSGDLTYDCACLPGFEGQNCEVNVDDCPGHRCLNGGTCVDGVNTYNCQCPPEWTGQFCTEDVDECQLQPNACHNGGTCFNTLGGHSCVCVNGWTGESCSQNIDDCATAVCFHGATCHDRVASFYCACPMGKTGLLCHLDDACVSNPCHEDAICDTNPVNGRAICTCPPGFTGGACDQDVDECSIGANPCEHLGRCVNTQGSFLCQCGRGYTGPRCETDVNECLSGPCRNQATCLDRIGQFTCICMAGFTGTYCE
notes: Positive control for Jagged1; also called N3 Fc; Fc part of the bought chimera not given, not described
For B3, the “Jagged1/293T X Geo mean” value (human Jagged1 [9]) was 51, the Jagged1/mock ratio (human Jagged1 [10]) was 3.87 and the Jagged1/mock ratio (human Jagged1 [11]) was 1.96. It also gave a Jagged1/mock ratio (human Jagged1 [12]) of 2.88.
